Test: soluble on expression in E. coli; label from the status in PepcDB or PDB records

Row | Sequence | soluble on expression in E. coli
1 | MDAVQELERRIVELEIQSALQEDVIAGLNAMVAELRQTLDLQQAQLRLLYQKMQDRNPDAQEPYSLRDEIPPHY | not soluble
2 | AAYEAELLGRVGLMSHLTRRLHESAKLNPHRVIYAACENPSVLKAAVSARAHGIARPIMLGDEKQIRDFAAELDLSLEGIEIVNYRSDEEKARRHHYARVFAEQNWRRGGNHTEALDKMFDPNYFGMMMVRLGDADAMITGIYSKHSYLAEVAKQTVGLQEGVGHFATMHMVSLKNGPLFLADTLINHNLSAEALVDIAVMAYEKAHCFGVKPVLAIVGFSDFGADSDADSTVEAAKAVAILHEKYPYILVDGEMRVSLALHAEKRDKQYPQNKIKGRNANVLIFPRLSAANACYQLLREADDAEEVLGPIQIGLAKPVYFADHDATVSDILNITAMAVLDSHACLI | soluble
3 | MTETEQEAFADLVAELETQTAEAVKAFSKVFDRMEETNDDKEGLSLLKLKNYEMTAYLGELTVLMSKMMKGESITVEPSVKRALKHRVFIEKMKPVEDKMKPQIEKLLGRSSAESGASNGSSKGNHRVRLDNMDVEGDEEEEEEDEDDEEGKGAKEVKKYVAPRIRAVRYEEEDEAPNKQQEKAKRRAMQSSLIMELKNQYSDAPEEIREMSEKKYQYDRERERYEEDNFTRIRLNKDQKRRSEQLGRSETLDDLLSFGDYMMRGEDGRALSEGNKRKRATSSGAGGDTKRHKKSQKERKKAAKGKKEGRKRAIRRRQ | not soluble
4 | MGSSHHHHHHGSTKYALVGDVGGTNARLALCDIASGEISQAKTYSGLDYPSLEAVIRVYLEEHKVEVKDGCIAIACPITGDWVAMTNHTWAFSIAEMKKNLGFSHLEIINDFTAVSMAIPMLKKEHLIQFGGAEPVEGKPIAVYGAGTGLGVAHLVHVDKRWVSLPGEGGHVDFAPNSEEEAIILEILRAEIGHVSAERVLSGPGLVNLYRAIVKADNRLPENLKPKDITERALADSCTDCRRALSLFCVIMGRFGGNLALNLGTFGGVFIAGGIVPRFLEFFKASGFRAAFEDKGRFKEYVHDIPVYLIVHDNPGLLGSGAHLRQTLGHIL | soluble
5 | MGNGDKVMSHWSFHIPRLHHHEHDHEKVPKGCLAVKVGQGEEQERFVIPVMYFNHPLFGQLLKEAEEEFGFAQKGTITIPCHVEEFRYVQGLIDRENTRFLGTNLLDHHHHHHNHLIRCFRV | not soluble
6 | MAHHHHHHMSNHGGSSSLDALGGVETAAAETTRNIVLGLPKDGPVPGSSDAASLQAAEAFIGSIQQEIMACDMANARAMELYARHWWTKVPYFGKRFGSTTATLEVTGADGGGVSGLPACTGTSDGQHKHMRLERSSEVAAVPGTSRGQQQRLNSWFFKLRHPGWVPIIQRPWVPYFCIGCLMLVWTPDIWKLRTLHWCDYQYAEFRRAVHRAYWRATMSAEDYKELMEELERGRPPPFGVSKCPL | not soluble
7 | MVADHFRYLVQYDDINREEHAHKSRIAYQEALGIAKDKMQPTHPIRLGLALNASALNFDVLNLPKEANEIAQSALDSAHRELEKMKSSLDSYDISNLKRARTLYDLLKSTHEQRVDGKEGEEADN | not soluble
8 | MSLDRNLYEDTFVVFDVETTGLSAVYDTIIELAAVKIKGGEIVDRFESFANPHHALSQTTIDLTGITDDMVNDAPEVADVLKDFHTWMGNDILVAHNASFDMGFLNQGFQRIDYEKASNPVVDTLELARFLLPELRNHRLNTLCKHLDIELTQHHRAIYDAEATGYLLWKLVQRLVEKEISNHEGHHHHHH | soluble
9 | VVPAQHRPPDRPGDPAHDPGRGRRLGIDVGAARIGVACSDPDAILATPVETVRRDRSGKHLRRLAALAAELEAVEVIVGLPRTLADRIGRSAQDAIELAEALARRVSPTPVRLADERLTTVSAQRSLRQAGVRASEQRAVIDQAAAVAILQSWLDERLAAMAGTQEGSDA | not soluble
10 | MAHHHHHHMNCPIVLKTLEQNKNFCVINPEAMDSCIYISLDYFKENLITSCTHKKPLPHTCNVKNEISGIKNLKTEQIELNEFIQEYYKRLIINDDEIMWNVCYFRKSKEFLTILLLEFLKSMLTVLNKYNGKCIFKKTEYLVNCGHHITHRIWIQMFYEYGFESVDADTKKNMKNYPIIQQEDGNNRTLYLTIADHYKWDA | not soluble
11 | SEATKERVGLLDTILPPALADAGLEDCALPPESIQEAFRKAANAVKSRAASIFDHEEEDGCLADPIPETADKIIVGGDNERDTGPCLAGKGIEKLAESKQAGDLVVAGEGEEGKSCVDGLKDLDVEGIERSSEKKDQSDEDEEEEMKPILVEGFV | soluble
12 | MGSDKIHHHHHHMRWEEVEPVVRELLDFQISSPEEFRTFINKVTDFFDRVREEHGWLYIKMTVNADKEEFAKAYEEFQKEIVAKLKPYEQKIKEKIVENEHFAPRGYEHMIKVIKNDVELFREENVPLQVKESILSRNYGTIVGNIEVDFEGEKKTLQQLSVYLRDPDRSTRELAWRKRYEGIWEVRDKLNKLFDELKEIRHQQALNAGFSNYRDYMHRLKSRFEYTPEDLYRFHEAVEKEVVPYLVERTKIRQRKLGIESVRPWDTAVDVDGKVLKPFSSVEEFMEKTERALKRLNPTFAERFRLMREKNLLDLENRKGKAPGGYNHTLPKTGAPFIFMNAVGQPGDVRTIFHELGHSMHSFETLSLPVFYRPHRMEVAELASMSLELISMEYWDEFYTDPEDLKKAKIEELEGALYFLPWCMIVDAFQHWIYTNPDHTPKERDEYFAYLMDRFNPGVDWSDLDEEKKTRWLFQLHIFEVPFYYIEYGIAQIGALAIYRNYIEDPEKTLKDYQRFLSVGCSMPVDEVYKTAGIELKFSRDYIREIVDFVAKQIEEIEK | not soluble
13 | MSLKIAILYREEREKEGEFLKEKISKEHEVIEFGEANAPGRVTADLIVVVGGDGTVLKAAKKAADGTPMVGFKAGRLGFLTSYTLDEIDRFLEDLRNWNFREETRWFIQIESELGNHLALNDVTLERDLSGKMVEIEVEVEHHSSMWFFADGVVISTPTGSTAYSLSIGGPIIFPECEVLEISPIAPQFFLTRSVVIPSNFKVVVESQRDINMLVDGVLTGKTKRIEVKKSRRYVRILRPPEYDYVTVIRDKLGYGRRIEEGGSHHHHHH | soluble
14 | MVMRYSLKQLAVFDAVATTGSVSQAAELLSLTQSATSMSLSQLEKMLGRSLFERHGKRMALTHWGVWLRPKAKKLIHDAQQIELGFYDQHLISGEISLGASQTAAEHLVPNLISNIDNDFPEIRISLGVKNTSGIIEGVLDYKYELGIIEGRCDDSRIHQEVFCTDHLIIVAAAHHPFAKHEKVSLAQLEQAKWVLREHGAGTRTIFDSAIHGKIPDLDVWREYEYVPVLRTLVANGQYLSCLPYLDVVKYIERGELVALNVPELNMERTLSFIWRSSMDQNPISDCIRREGIRMIKNHNVIR | not soluble
15 | GSFTMPGLVDSNPAPPESQEKKPLKPCCACPETKKARDACIIEKGEEHCGHLIEAHKECMRALGFKI | soluble
16 | MLAAFISRVLRRVAQKSARRVLVASRNSSNDATFEIKKCDLYLLEEGPPVTTVLTRAEGLKYYRMMLTVRRMELKADQLYKQKFIRGFCHLCDGQEACCVGLEAGINPSDHVITSYRAHGVCYTRGLSVRSILAELTGRRGGCAKGKGGSMHMYTKNFYGGNGIVGAQGPLGAGIALACKYKGNDEICLTLYGDGAANQGQIAEAFNMAALWKLPCVFICENNLYGMGTSTERAAASPDYYKRGNFIPGLKVDGMDVLCVREATKFAANYCRSGKGPILMELQTYRYHGHSMSDPGVSYRTREEIQEVRSKRDPIIILQDRMVNSKLATVEELKEIGAEVRKEIDDAAQFATTDPEPHLEELGHHIYSSDSSFEVRGANPWIKFKSVS | soluble
17 | MGSDKIHHHHHHEELEYKGMNTLQISNVDDLISFYQYADDRIPLISGHRGGRGKGYPENSMETFENTLSYTPATFEIDPRLTKDSVIVLFHDDTLERTSNGTGKVSDYTWEELQNFRLKDPEGNITNYRIPTLEEAIRWARGKTILILDKKDVPMERTAQLITDMQAEPYVMITVHDGASARFFYEKNPNFMFEAFVKTKEAVQDYEDNGIPWSHIMAYVGPKITPEVREVIDMLHERGVMCMISTAPSDDKLSTPESRAEAYRMIIRQGVDIIESDRPIEVAEAISSLIPVSSSKGKFFSTL | not soluble
18 | MIHVILLAAGYSSRFGSNKLLHIVDGTPMYRHALETAEQFRQRYCCEPVRLIFVTAYDDIGKQLREKDGFCLFGAAKAGNTAGRDLVVMNPNSGLGISHSIALGVKAAGADRFQEDDSLMFMVCDQPWLTPGDLLNLAACFKRSGKSIGCMAYGEQTGNPVLFSAVYREELLGLRGDTGGKAIVRRHPKEVCLCPVSNPRALEDMDELQ | not soluble
19 | MQLRSVIAADHPALFALWSRTPGIRLRAEDAYPFFLAYLQRNPGLSLLVETEGEVIACLMAGHDGRRGYLQHLVVDPGYRGLGLARRMLDEVLARLAREGIGKSHVFVLDAAEEAQAFWRAQSDWERRKDIQVFSTREGHA | soluble
20 | MSLKLTKKVGYAGRVITERGLEELEKANISYRLGSIYSNILEKTISANYRFGYVVINRCQVYADFNDVLKIIKSVYESGLAVGDRVGIIDREKFVEINTLCSLNFDNILLQNGIFPLHVCAGVVKYEDGKPVEFKEIIDYKSTSIDPLRAFIEKKETDVMGIIENGEGYLPANFRYFGVEFLERFETILEIDELKCIISYGTENVLGLDVGDDKVGVALIGGLTPIAPFVENNYCVEICPMSSIVRLESLHKLKKNPRDIVTKKANIRIKTALSKMFNAMAKVTYDIDEADGDVIVNTAFIDKKYLDEAFDILKEAYKKGLGISDRFGIVEENDRIKIQTICAVTLDGIFLRNSVPLIPKYGGILEITEDKERFIDIIGYDGSSLDPHEVFFNFVDCEKTFLAGFREVHRVAREKLEEVLKKLNWNGIKAIGEPNNELYGIGVNKDMCGVVTMGGINPLVLLKENEIPIELKAMHEVVRFSDLKSYKEIEGHHHHHH | soluble
21 | MKPVSGSFSGYHPMATVSEQPVAKPRASESPQSESIEERPACLAPVAGAGQPLPGASSSLSAYLLLRRLDHRPVSQEGINALTPADEAVVEARNALPFGRGNVGVDAQKTDLESSIRTRSVMRLTRDAEAAGHTPMRGVDADMNWNVLVAMSGRIFGAGNCREHARIASFAYGGLAQESGRSSEEKIHLATKAGVDHVWVETDHPDADSSPMVIDPWANGSAILAEDSRFAKDRSAVTRTDTFDLSLAAEAGQIAKATAEEALAHTQGRLQQRLASERPDAVPLESGRYREEVSVLDDTFARRVGQKVNTADPRGMLNVELEAVGVAMSLGGEGVKPLTQEASQIVEKAKKFASPGGMPRDA | not soluble
22 | MAHHHHHHMGTLEAQTQGPGSMNVLVIGSGGREHSMLHHIRKSTLLNKLFIAPGREGMSGLADIIDIDINSTIEVIQVCKKEKIELVVIGPETPLMNGLSDALTEEGILVFGPSKAAARLESSKGFTKELCMRYGIPTAKYGYFVDTNSAYKFIDKHKLPLVVKADGLAQGKGTVICHTHEEAYNAVDAMLVHHKFGEAGCAIIIEEFLEGKEISFFTLVDGSNPVILGVAQDYKTIGDNNKGPNTGGMGSYSKPNIITQEMEHIIIQKIIYPTIKAMFNMNIQFRGLLFAGIIIKKNEPKLLEYNVRFGDPETQSILPRLNSDFLKLLSLTAKGKLGNESVELSKKAALCVVVASRGYPGEYKKNSIINGIENIEKLPNVQLLHAGTRREGNNWVSDSGRVINVVAQGENLASAKHQAYAALDLLDWPDGIYRYDIGSCAL | soluble
23 | AIGRYTPADSTQELRDAARRLLPSSSLDKDLERLLRTWHKGYSTKTKRGERPCINSDTGPYTSDSVYIRRLSALPSAVPIQFNPAVKQCIKLYTEERRRLVRYMLSLADLYFPQIEETLDRHNLPIELKYLTIV | not soluble
